From the Human Domainome abundance scans (Beltran et al. 2025)
± gives the uncertainty stated by the source.

B1: E3 ubiquitin-protein ligase NEDD4, residues 836 to 881; numbered along this chain, P46934 (parent)
chain: EIEQGFLPKGWEVRHAPNGRPFFIDHNTKTTTWEDPRLKIPAHLRG

Variants of: B1
Assay: abundance fitness (aPCA) (normalised: wild type 0, dead -1); higher = more abundant; growth selection in yeast, the domain comes from the species named
Details: Homo sapiens

| Variant | abundance fitness |
| --- | --- |
| G19L | -0.923 ± 0.11 |
| K29E | -0.324 ± 0.079 |
| W11T | -0.792 ± 0.17 |
| F23K | -0.47 ± 0.07 |
| N18V | -0.83 ± 0.076 |
| F22S | -0.797 ± 0.091 |
| N27D | -0.12 ± 0.088 |
| P36H | -0.71 ± 0.18 |
| I40M | -0.026 ± 0.069 |
| E3V | -0.162 ± 0.057 |
| G19M | -0.827 ± 0.094 |
| T28I | -0.901 ± 0.16 |
| K29I | -0.954 ± 0.21 |
| G19Q | -0.632 ± 0.15 |
| Q4P | -0.116 ± 0.042 |
| R45D | 0.104 ± 0.037 |
| E12H | -0.227 ± 0.11 |
| H26S | -0.47 ± 0.051 |
| P8V | -0.96 ± 0.16 |
| G5N | 0.031 ± 0.05 |
| E1T | 0.091 ± 0.12 |
| R45G | 0.005 ± 0.041 |
| L38D | 0.036 ± 0.056 |
| Q4S | -0.024 ± 0.043 |

| Variant | abundance fitness |
| --- | --- |
| I24E | -0.849 ± 0.16 |
| N27A | -0.295 ± 0.057 |
| N18L | -0.696 ± 0.087 |
| E1V | -0.153 ± 0.076 |
| E34M | -0.054 ± 0.075 |
| L7W | -0.577 ± 0.11 |
| E12A | -0.533 ± 0.066 |
| K9W | -0.52 ± 0.047 |
| D35H | -0.418 ± 0.14 |
| F6Y | 0.018 ± 0.035 |
| W33L | -0.433 ± 0.062 |
| L7S | -0.573 ± 0.055 |
| P41M | -0.353 ± 0.062 |
| K39H | -0.355 ± 0.075 |
| Q4W | -0.298 ± 0.078 |
| P36N | -0.818 ± 0.21 |
| K9T | -0.237 ± 0.091 |
| E12P | -0.967 ± 0.096 |
| T31C | -0.064 ± 0.054 |
| P41E | -0.167 ± 0.069 |
| R20M | -0.052 ± 0.052 |
| R45N | 0.017 ± 0.037 |
| N18W | -0.664 ± 0.054 |
| N18K | -0.652 ± 0.15 |

| Variant | abundance fitness |
| --- | --- |
| H26M | -0.262 ± 0.053 |
| L38A | -0.103 ± 0.046 |
| Q4R | -0.002 ± 0.042 |
| D25E | -0.351 ± 0.13 |
| T32W | -0.807 ± 0.097 |
| A42V | -0.128 ± 0.035 |
| I24Q | -0.947 ± 0.11 |
| I2L | 0.11 ± 0.064 |
| A42S | -0.092 ± 0.057 |
| I24T | -0.701 ± 0.17 |
| L44K | -0.154 ± 0.072 |
| F6Q | -0.297 ± 0.093 |
| P21Q | -0.058 ± 0.062 |
| E3G | -0.044 ± 0.041 |
| L7R | -1.03 ± 0.13 |
| E12I | -0.633 ± 0.099 |
| Q4A | -0.146 ± 0.048 |
| W11F | -0.795 ± 0.21 |
| T32R | -0.648 ± 0.044 |
| R20C | -0.278 ± 0.05 |
| E3F | -0.109 ± 0.098 |
| T32Y | -0.564 ± 0.07 |
| F6A | 0.155 ± 0.034 |
| P17F | -0.447 ± 0.049 |

| Variant | abundance fitness |
| --- | --- |
| T31S | 0.006 ± 0.042 |
| L38Q | -0.091 ± 0.063 |
| R37S | -0.472 ± 0.049 |
| A42F | -0.223 ± 0.11 |
| L44P | 0.119 ± 0.068 |
| I2H | -0.326 ± 0.16 |
| L38K | -0.105 ± 0.085 |
| A42G | -0.013 ± 0.04 |
| T30W | -1.38 ± 0.28 |
| R20F | -0.78 ± 0.1 |
| K9H | -0.251 ± 0.11 |
| F22H | -0.844 ± 0.17 |
| K29T | -0.577 ± 0.089 |
| E34D | -0.312 ± 0.11 |
| T31P | -0.901 ± 0.081 |
| E34W | -0.306 ± 0.049 |
| H15I | -0.051 ± 0.081 |
| P17H | -0.276 ± 0.13 |
| G10S | -0.831 ± 0.081 |
| P36S | -1.09 ± 0.16 |
| I40K | 0.095 ± 0.07 |
| E12K | -0.599 ± 0.058 |
| R37W | -0.812 ± 0.11 |
| E34H | -0.172 ± 0.041 |

| Variant | abundance fitness |
| --- | --- |
| D35W | -0.849 ± 0.043 |
| F22N | -0.774 ± 0.1 |
| R37H | -0.268 ± 0.072 |
| V13H | -0.724 ± 0.23 |
| K39G | -0.065 ± 0.039 |
| H43N | -0.084 ± 0.063 |
| R37G | -0.586 ± 0.042 |
| L38G | -0.018 ± 0.034 |
| H26C | -0.388 ± 0.052 |
| F22C | -0.122 ± 0.069 |
| R20Q | 0.137 ± 0.051 |
| E12S | -0.278 ± 0.05 |
| V13S | -0.399 ± 0.048 |
| T31H | -0.578 ± 0.083 |
| V13M | 0.05 ± 0.032 |
| R14Q | -0.121 ± 0.08 |
| L44A | 0.08 ± 0.047 |
| L7T | -0.441 ± 0.1 |
| T28L | -0.341 ± 0.049 |
| R20Y | -0.577 ± 0.1 |
| P41S | -0.139 ± 0.064 |
| P41D | -0.16 ± 0.065 |
| H26V | -0.423 ± 0.038 |
| R14H | -0.47 ± 0.12 |

| Variant | abundance fitness |
| --- | --- |
| P21D | -0.445 ± 0.039 |
| K39Q | -0.372 ± 0.092 |
| K29G | -0.002 ± 0.038 |
| L7P | -0.473 ± 0.096 |
| R45P | 0.006 ± 0.058 |
| P36Q | -1.03 ± 0.31 |
| H15R | -0.004 ± 0.033 |
| H15W | -0.133 ± 0.049 |
| E34S | -0.163 ± 0.039 |
| K39C | 0.32 ± 0.072 |
| Q4T | -0.242 ± 0.075 |
| H15M | -0.34 ± 0.084 |
| P36L | -1.01 ± 0.064 |
| A16P | -0.416 ± 0.14 |
| L7M | -0.186 ± 0.037 |
| D35M | -0.734 ± 0.16 |
| D35R | -0.554 ± 0.044 |
| D35V | -0.762 ± 0.085 |
| T30D | -0.347 ± 0.085 |
| R20K | 0.16 ± 0.046 |
| W33V | -0.243 ± 0.05 |
| F22R | -0.745 ± 0.079 |
| F6S | 0.16 ± 0.032 |
| F23C | -0.966 ± 0.12 |

| Variant | abundance fitness |
| --- | --- |
| D25L | -0.922 ± 0.099 |
| D35G | -0.593 ± 0.048 |
| W11A | -0.79 ± 0.096 |
| K29C | -0.323 ± 0.045 |
| G19Y | -0.828 ± 0.053 |
| E3L | -0.421 ± 0.1 |
| H26E | -0.591 ± 0.056 |
| W11P | -0.817 ± 0.12 |
| K29V | -0.82 ± 0.097 |
| L38Y | -0.435 ± 0.11 |
| H43S | 0.019 ± 0.032 |
| W33G | -0.372 ± 0.047 |
| R20L | -0.223 ± 0.036 |
| G10T | -1 ± 0.2 |
| I2E | -0.037 ± 0.094 |
| E1R | -0.07 ± 0.2 |
| P8F | -0.341 ± 0.38 |
| H26R | -0.45 ± 0.037 |
| V13A | -0.266 ± 0.036 |
| A16Q | -0.353 ± 0.069 |
| L44H | 0.116 ± 0.069 |
| V13L | -0.122 ± 0.03 |
| V13N | -0.836 ± 0.23 |
